Test: yeast display, Sf9 membrane polyspecificity reagent, FACS + sequencing; frameworks hold sequencing errors
In short: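 Genes from sorted yeast were amplified by colony PCR, read by MiSeq 2 × 250 sequencing and filtered on CDR length. These cells carried a synthetic nanobody library in Saccharomyces cerevisiae BJ5465 and were sorted by FACS into low and high (top ~1%) gates on anti-HA and streptavidin fluorescence. Polyreactivity is labelled according to the gate of origin.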

Row | Sequence | polyreactivity (PSR sort gate)
1 | QEQLVESGGGLVQAGGSLRLSCAASGFTFWYYAMGWYRQAPGKEREFVAAISLGGGRTYYADSVKGRFTHSRDNAKNTVYLQMNSLKPEDTAVYYCAVDSGTYRSYRYDYCGQGTQVTVSS | high polyreactivity
2 | QEQLVESGGGLVQAGGSLRLSCAASGSIQPNAMGWYRQAPGKEREFVAAISRSGASTYYADSVKGRFTISRDNAKNTVYLQMNSLKPADTAVYYCAADFYYYNNNDYDYWGQGTQVTVSS | high polyreactivity
3 | QEQLVESGGGLVQAGGSLRLSCAPSGSIMYVYAMGWYRPAPGKERELVAVITSGGSTTYADSVKGRFTMSRDNAKNTVYLQMNSLKPEDTAVYYCAAVPYSVYGGDYWGQGTQVTVSS | low polyreactivity
4 | QFHLVESGGGLVQAGGSLRLTCAASGRTFAYYAMGWYRQAPGKEREMVAGITRNGGSTYYADSVKGRFTISRDNAKNTVYLQMNSLKPEDTAVYYCAAGFTTRRGEYNYWGKGTQVTVSS | high polyreactivity
5 | QFHLVETGRGLVQAGGSLRLSCAASGVTYSQYAMGWYRQAPGKERELVARISRRRGSTSYADSVKGRCTISRDNAKNTVYLQMNRMKPEDTAVYYCAKDSPSVYPGRFGNTGGYAYDYWGQGTQVTVSS | high polyreactivity
6 | QFKLVESGGVLVKEGGRLRLICAASGSTFDENDMGRYRQAPGKEMEIVAVIYIGTSTNYADSVKGRFTISRDNAKNTVYLQMNSLKPEDTAVYYCAADVPGSYLVAIVGNAFNYWGQGTQVTVSS | low polyreactivity
7 | QFQHVESGGGLVQAGGSLRLSCAASGNTFYVYAMGWYRQAPGKERELVAGITTSGGSTYYADSVKGRFTISRDNAKNTVYLQMNSLKTEDTAVYYCATDISTSYYYKYSSFYQYDSWGQGTQVTVSS | low polyreactivity
8 | QFQLEESGGGLVQAGGSIRLSCAASGFILDSYGMGWYRQAPGTERELVAAISQSDVSTYYADSVNGRYTISRDNAKNTVYLHMNSLKPEDTAVYYCAADRGGLRWFWQVLFDYWGQGTQVTVSS | low polyreactivity
9 | QFQLEESGGGLVQAGGSLRLSCAASGITFRRYTMGWYRQAPGKERELVATISLSDGNTYYADSVKGRFTISRDNAKNTVYYQMNSLKPEDTAVYYCNARHTWHQTYDYWGQGTQVTVSS | low polyreactivity
10 | QFQLEESGGGLVQAGGSLRLSCAASGSTFLRYAMGWYRQAPGKERELVAAITGRGTRTYYADSVKGRFTISRDNAKNTVYLQMNSLKPEDTAVYYCAAELSFTPRYYEGRIFYYWGQGTQVTVSS | high polyreactivity
11 | QFQLLDSGGGLVQAGGSLRLSSAPSGFTIIGYDMGWYRQAPVKERELVAAIDWSGGSTYYADSVKGRFTISRDNAKYSVDLQMHSLKPEDTAVYYCNAEWSSKRFTGDDYWGQGTQVTVSS | low polyreactivity
12 | QFQLLESGGGLVQAGGSLRLICAASGFICSLYAMGWYRPAPGKERELVATINRRGTSTFYADSVKGRFTISRDNAKNTVYLQMNSLKPEDTAVYYCNAYPGAAIRSTGRYDYWGQGTQVTVSS | low polyreactivity
13 | QFQLVDSVRGLVQAGVSLRLSCAASGRIFVKYVIGSYRQAPGTESQLVAANRSYGGSPYYADSVKGRFTISRDNAKNTVYLQMNSLKPEDTAVYYCAKRLHYSAPRYTEYDEWGHGTQVTVSS | high polyreactivity
14 | QFQLVESCGGLVQAGGSLRLSCAASGPIFKSNAMGCYRQAPGKERELVAAISGSGGRTYYAHSVKGRFTISRDNANNTVYLQMNSLKPEDTAVYYCNAGGSYYARGMDYWGQGTQVTVSS | high polyreactivity
15 | QFQLVESGGCLVQAGGSLRISSASSGSTLANYAMGWYRQAPGKEREFVAAINSGGSTYYADSVKGRFTISRDIAKNTVYLQMNSLKPEDTAVYYCAARYASPRYKSKMDYWGQGTQVTVSS | high polyreactivity
16 | QFQLVESGGGFVQAGGSLRLSGASSGIIFLANAMVWYRQSPGKEREFVAAISRSGSRTYDADSVKGRFTISRDHAKNSVYLQMNSVKPEDTAVYYCAAESPVLYYWGQGTQVTVSS | high polyreactivity
17 | QFQLVESGGGLDQAGGSLRLSCAASGFTLNRNAMGWYRQAPGKETELVAAITRGGRTYYADSVKGRFTISRDNAKNTVYLQMNSLKPEDTAVYYCARTVGYRTLLESDSWGQGTQVTVSS | high polyreactivity
18 | QFQLVESGGGLDQAGGSLRLSCAASGRTFAYYALGWYRQAPGKESELVAAISSGGGSTYYADSVKGRFTISRDNAKYTFYLQMNSLKPEDTAVYYCAKERSSSRSGGTYYYWGQGTQVTVSS | high polyreactivity
19 | QFQLVESGGGLDQAGGSLRLSCAASGRTFHAYAMGSYRQAHGKGRELVAAITRTGTTHYADSVKGRFTISRDNAKNTVFLQMNSLKPEDTAVYYCAAQHVRVAAQFVLQGYDYWGQGTQVTVSS | low polyreactivity
20 | QFQLVESGGGLFQAGGSLRLSSAASGITFRYYAMGWYRQAPGKERELVAAITRSGSSTFYADSVKGRFTISLDNAKNTVYLQMNSLKPEDTAVYYCAAESVRAVFPDRYKYWGQGTQVTVSS | high polyreactivity
21 | QFQLVESGGGLGQAGGSNRLSCAASGRIFNIYAMGCYRQSPGKERELVADITSGGTKYADSVKGRFTISRDNAKNTVYLQMNSLKPEDTAVDYCAAEYLYYGGVDYWGQGTQVTVSS | high polyreactivity
22 | QFQLVESGGGLLQAGGSLRLSCAASGRIFVPYVMGWYRQAPGKERELVASISDTDTSTYYADSVKGRFTISRDIAKNIVYLQMNSLKPEDTAVYYWNVDYWGQGTQVTVSS | low polyreactivity

Row | Sequence | polyreactivity (PSR sort gate)
23 | QFQLVESGGGLVHAGGSLRLSCAASGITFQWNSMGWYRQAPGKERELVAVISSDGRTYYADSVKGRFTISRDNAKYTVYLQMNSLKPEDTAVYYCNADRSVIHRGYIWQPGRNDYWGHGTQVTVSS | low polyreactivity
24 | QFQLVESGGGLVKAGGSLRLSCAASGLTNIYNARGWYRQAPGKERELVAAISGNGGDTYSADSVKGRFTISRDNAKNTVYLQMNSLKPEDTAVYYCAADYAYTPITWDEYWGQGTQVTVSS | low polyreactivity
25 | QFQLVESGGGLVLAGGSLRLSCAASGRTYLVNAMGWYRQAPGKERELVAVITRGGSTNYADSVKGRFTISRDNAKNTDYLQMNSLKPEDTAVYYCAKQFSPYRSYGPVVRYDYWGLGTQVTVSS | low polyreactivity
26 | QFQLVESGGGLVQAGASLRLSCAASGRIFEIYAMGWYRQAPGKDRELVAASSWRGVSTYYADSVKGRFTITRDNAKKTVYLQMNSLKPEDTAVYYCNKDVDYFWYVEYDYWGHGTQVTVSS | low polyreactivity
27 | QFQLVESGGGLVQAGGILRLSCDASGSILARYALGWYRQAPGKERVLVAAISSRGGSTYYADSVKGRFSISRDNAKNTVYLQMNSLKPEDTAVYYCASYVYLQVEYDYWGQGTQVTVSS | low polyreactivity
28 | QFQLVESGGGLVQAGGSIRSSCAASGIIFWGNAMGWYRQAPGKESELVATITGRGGSTYYADSVKGRFTISRDNAKNTVYLQMNSLKPEDTAVYYCNADSSRYYRALEYWGQGTQVTVSS | low polyreactivity
29 | QFQLVESGGGLVQAGGSLPLSCAASGRTFGGNTMGRYREAPGKERELVAAISRRGGSTYYADSVKGRFTISRDNAKNTVYLQMNSLKPEDTAVYYCNKDGPSYSSYDYWGQGTQVTVSS | low polyreactivity
30 | QFQLVESGGGLVQAGGSLRLICAASGITFYPNDMGWYRQSPGKERELVAAITTNDGDTYYADSVKGRFTISRDNAKNTVYLQMNSLKPEDTAVYYCAADSGSTSEYEYWGKGTQVTVSS | low polyreactivity
31 | QFQLVESGGGLVQAGGSLRLICAASGLTFVYNDMGWYRQAHGKERELVAGITSGGSTYYADSVKGRFTISRDNAKNTVYLQMNSLKPEDTAVYYGAADGLSTDLFRPDSIVDYWGQGTQVTVSS | low polyreactivity
32 | QFQLVESGGGLVQAGGSLRLRCAASGQTFRYYAMGWYRQAPGKERELVAAITRRGSTYYADSVKGRFTISRDNAKNTVNLQINSLKPEDTAVYYCATVTGFHSSPLRDLDYWGQGTQVTVSS | high polyreactivity
33 | QFQLVESGGGLVQAGGSLRLSCAASGFIFTRYVMGWYRQAPGKERELVAAINWSGDSTYYADSVKGRFTISRDYAKNTVYLQLNSLKPEDTAVYYCNADYGWVDTYTNYDYWGQGTQVTVSS | low polyreactivity
34 | QFQLVESGGGLVQAGGSLRLSCAASGFTFYYYAMGWYRQAPGKERELVAAISSSGSSTYYADSVKGRFTISRVNAKNTVYLQMNSLKREDTAVYYWNARRYEYLWGDYWGQGTQVTVSS | high polyreactivity
35 | QFQLVESGGGLVQAGGSLRLSCAASGGTFGNNDMGWYRQAPGKERELVAAIRSAGTTYYADSVKGRFTISRDNAKNTVYLQMNSLKPEDTAVYYCNADTTGYWSYGFQYYGEDYWGQGTQVTVSS | low polyreactivity
36 | QFQLVESGGGLVQAGGSLRLSCAASGITFGSSAMGWYRQAPGKDRELVAAIDTSGDDTYYADSVKGRFTISRDNAKNTVYLQMNSLKPEDTAVYYCNAVSTASDEYDYWGQGSQVTVSS | low polyreactivity
37 | QFQLVESGGGLVQAGGSLRLSCAASGITFGWYAMGWYRKATGKETELVASISSSGSTNYADSVKGRFTISRDNAKNTVYLQMNSLKPEDTAVYYCNKDYLLRQYYIYVIEGDYWGQGTLVTVSS | low polyreactivity
38 | QFQLVESGGGLVQAGGSLRLSCAASGLIFPKYAMGWYRQAPGKEREFVAAISGRGGTTYYADSVKGRFTISRDNAKNTVYLQMNSLKPEDTAVYYCAAGGPWANIYGNGYWGQGTQVTVSS | high polyreactivity
39 | QFQLVESGGGLVQAGGSLRLSCAASGLTIDPNAMGWYRQAPGKERELVATITQTDGSTYYADSVKGRFTISRDNAKNTVYLQMNSLKPEDTAVYYCVGLVSRGSDYWGQGTQVTVSS | low polyreactivity
40 | QFQLVESGGGLVQAGGSLRLSCAASGRIFGENARGWYSQATRKEREFVAVISISDASTYYADSVKGRFTITRDNAKNTVYLQMNSLKREDTAVDYCAADLTDFLYVASDYWGQGTQVTVSS | low polyreactivity
41 | QFQLVESGGGLVQAGGSLRLSCAASGRIFNYYAMGWYRQAPGKERELVAAISARGGSTYYADSVKGRFTISRDNAKNTVYLQMNSLKPEDTAVYYCAVSSGSYGYGYWGQGTQVTVSS | high polyreactivity
42 | QFQLVESGGGLVQAGGSLRLSCAASGRIFRSNAMVWYRQAPGKERELVAAISWSGGSTYYADSVKGRFTISRDNAKNTVYLQMNSLKPEDTAVFYCAARYRGSRYDYWGQGTQVTVSS | high polyreactivity
43 | QFQLVESGGGLVQAGGSLRLSCAASGRIFVPNAMGWYRQAPGKEREFVAAINSGGSTYYADSVKGRFTISRDNAKNTVYLQMNSMKPEDTAVYYCAAVDFSSGYYGRLARYYYWGQGTQVTVSS | high polyreactivity

Reference: the nanobody polyreactivity screen of Harvey et al. (2022)
